Results published in paper PMC4136552 (Journal of molecular recognition : JMR, 2011).

B1: human Grb7-SH2 domain (domain or fragment, UniProt Q14451 431-527, looked up)
chain: WFHGRISREESQRLIGQQGLVDGLFLVRESQRNPQGFVLSLCHLQKVKHYLILPSEEEGRLYFSMDDGQTRFTDLLQLVEFHQLNRGILPCLLRHCC

Key:
[1] = target: erbB2 peptide (Homo sapiens) (UniProt P04626); settings: cited from earlier work
[2] = target: hGrb7-RA-PH domains (residues 103-341), hexa-histidine fusion (human, UniProt Q14451 103-341); test: ITC
Chain of hGrb7-RA-PH domains (residues 103-341), hexa-histidine fusion (Q14451 103-341): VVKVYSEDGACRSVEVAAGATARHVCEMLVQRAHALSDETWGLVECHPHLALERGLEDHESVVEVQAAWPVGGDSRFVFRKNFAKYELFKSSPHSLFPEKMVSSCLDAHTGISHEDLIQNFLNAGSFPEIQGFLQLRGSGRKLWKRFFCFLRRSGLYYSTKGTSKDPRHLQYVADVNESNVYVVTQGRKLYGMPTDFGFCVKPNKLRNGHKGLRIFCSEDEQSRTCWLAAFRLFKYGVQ

Row | Molecule | Kd [1] [µM] | Kd [2] [µM]
1 | Grb7 SH2 (from UniProt Q14451) | 2.28 | –
2 | B1 | – | 2.8
